Assay results taken from patent US20170066831A1 (Janssen / Centocor, published 2017).
Where a chain is given by its changes, count along the chain named. One block for each binder: values may come before it.

Experiments:
[1] = molecular target: T1, human ST2L, full length, on cells (human, UniProt Q01638 19-556); assay: cell-based or functional assay
T1 sequence: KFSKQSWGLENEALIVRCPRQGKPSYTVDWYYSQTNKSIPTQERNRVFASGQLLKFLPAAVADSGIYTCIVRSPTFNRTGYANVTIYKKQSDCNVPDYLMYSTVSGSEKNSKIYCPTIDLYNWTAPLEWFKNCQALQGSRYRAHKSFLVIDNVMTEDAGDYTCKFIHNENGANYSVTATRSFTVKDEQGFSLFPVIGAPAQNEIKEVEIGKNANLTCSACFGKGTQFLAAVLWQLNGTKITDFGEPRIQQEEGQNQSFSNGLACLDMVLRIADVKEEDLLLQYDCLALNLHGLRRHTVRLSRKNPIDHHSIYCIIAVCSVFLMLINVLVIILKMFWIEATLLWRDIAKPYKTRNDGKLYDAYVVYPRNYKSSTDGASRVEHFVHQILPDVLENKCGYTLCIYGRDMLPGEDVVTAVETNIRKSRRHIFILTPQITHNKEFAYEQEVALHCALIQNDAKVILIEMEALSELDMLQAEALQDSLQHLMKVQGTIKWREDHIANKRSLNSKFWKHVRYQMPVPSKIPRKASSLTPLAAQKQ

[2] = molecular target: T2, human ST2L extracellular domain with C-terminal His6 tag (human, UniProt Q01638 19-328); assay: SPR, mAb captured, ST2L-ECD in solution
T2 construct: also called huST2L-ECD; ST2L-ECD
T2 sequence: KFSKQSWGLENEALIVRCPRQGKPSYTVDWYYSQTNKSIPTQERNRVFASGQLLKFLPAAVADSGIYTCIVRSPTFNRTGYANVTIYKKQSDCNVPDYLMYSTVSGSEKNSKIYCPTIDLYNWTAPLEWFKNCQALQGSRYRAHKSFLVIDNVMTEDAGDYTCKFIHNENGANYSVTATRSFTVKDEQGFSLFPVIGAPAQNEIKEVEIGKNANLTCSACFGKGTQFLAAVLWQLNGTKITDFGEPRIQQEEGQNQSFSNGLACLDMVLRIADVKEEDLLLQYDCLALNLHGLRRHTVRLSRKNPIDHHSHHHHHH

[3] = molecular target: T3, cynomolgus (Macaca fascicularis) ST2L extracellular domain with C-terminal His6 tag (Macaca fascicularis (cynomolgus), UniProt Q01638 19-321 (human entry)); assay: SPR, mAb captured, ST2L-ECD in solution
T3 construct: also called cyno ST2L-ECD; cynoST2L-ECD
T3 chain: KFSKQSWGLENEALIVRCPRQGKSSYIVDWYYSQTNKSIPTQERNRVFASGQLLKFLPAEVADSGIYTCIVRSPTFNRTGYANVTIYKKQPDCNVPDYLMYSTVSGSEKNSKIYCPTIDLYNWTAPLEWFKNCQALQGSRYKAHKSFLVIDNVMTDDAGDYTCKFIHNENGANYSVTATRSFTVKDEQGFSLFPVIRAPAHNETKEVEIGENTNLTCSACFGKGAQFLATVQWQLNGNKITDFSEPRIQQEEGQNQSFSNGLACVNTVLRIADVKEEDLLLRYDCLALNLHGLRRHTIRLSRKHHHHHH

[4] = molecular target: T2, human ST2L extracellular domain with …; assay: RLB ELISA: biotinylated IL-33 on coated huST2L-ECD, antibody titrated
Description: 96-well plate was coated with 50 μl of 4 μg/ml human ST2L-ECD (amino acids 19-328 of SEQ ID NO: 1) or 2 μg/ml cyno ST2L-ECD (amino acids 19-321 of SEQ ID NO: 2) having C-terminal His₆ tag in bicarbonate buffer at 4° C. for 16 hrs. All subsequent steps were performed at room temperature. Plate was blocked with 200 μl blocking buffer, and was washed 3 times with 300 μl of wash buffer containing PBS+0.05% Tween. 30 μl of various dilutions of anti-ST2L mAbs were added to the wells and incubated for 1 hour. For human receptor-ligand binding assay 20 μl of biotinylated human IL-33 (residues 112-270 of SEQ ID NO: 3) was added at 100 ng/ml final concentration and incubated for 30 minutes. For cyno receptor-ligand binding assay 20 μl of biotinylated cyno IL-33 (residues 112-269 of SEQ ID NO: 4) was added at 200 ng/ml final concentration and incubated for 30 minutes. The plate was washed 3 times with 300 μl of wash buffer. 50 μl of 0.2 μg/ml Streptavidin-HRP (Jackson Immunoresearch) was added and incubated for 30 min. The plate was washed 3 times with 300 μl of wash buffer containing PBS+0.05% Tween. 50 μl of TMB substrate (EMD Biosciences) was added to each well. Reaction was stopped by the addition of 100 μl of 0.2N Sulfuric Acid. OD450 were measured using Envision plate reader (Perkin Elmer).

RGA IC50 [1]: 2.52 µg/mL
Kd [2]: 0.029 nM
koff [2]: 0.000483 s⁻¹
kon [2]: 1.7e+07 M⁻¹ s⁻¹
Kd [3]: 0.014 nM
koff [3]: 0.00139 s⁻¹
kon [3]: 1e+08 M⁻¹ s⁻¹
IC50 [4]: 0.28 µg/mL
B2: STLM211 (antibody, V domains shown)
VH: EVQLLESGGGLVQPGGSLRLSCAASGFTFSGYAMIWVRQAPGKGLEWVSYIEGEGGETYYADSVKGRFTISRDNSKNTLYLQMNSLRAEDTAVYYCARDPWSTEGSFFVLDYWGQGTLVTVSS
VL: EIVLTQSPATLSLSPGERATLSCRASQSVDDDLAWYQQKPGQAPRLLIYDASNRATGIPARFSGSGSGTDFTLTISSLEPEDFAVYYCQQYNDAITFGQGTKVEIK
notes: frameworks VH3-23 / Vk-L6

RGA IC50 [1]: 2.79 µg/mL
Kd [2]: 0.035 nM
koff [2]: 9.61e-05 s⁻¹
kon [2]: 2.73e+06 M⁻¹ s⁻¹
Kd [3]: 0.022 nM
koff [3]: 0.00013 s⁻¹
kon [3]: 6.04e+06 M⁻¹ s⁻¹
IC50 [4]: 0.39 µg/mL
B3: STLM221 (antibody, V domains shown)
VH: B2 VH with G31I, A33D, I35F, E52R, E57D, Y59N
VL: EIVLTQSPATLSLSPGERATLSCRASQSVDDDLAWYQQKPGQAPRLLIYDASNRATGIPARFSGSGSGTDFTLTISSLEPEDFAVYYCQQYIGAPITFGQGTKVEIK
notes: frameworks VH3-23 / Vk-L6

RGA IC50 [1]: 1.33 µg/mL
Kd [2]: 0.023 nM
koff [2]: 0.000224 s⁻¹
kon [2]: 9.89e+06 M⁻¹ s⁻¹
Kd [3]: 0.018 nM
koff [3]: 0.000265 s⁻¹
kon [3]: 1.45e+07 M⁻¹ s⁻¹
IC50 [4]: 0.42 µg/mL
B4: STLM218 (antibody, V domains shown)
VH: B2 VH with G31V, Y32D, A33S, I35F, Y50S, E54N, E57A
VL: B3 VL
notes: frameworks VH3-23 / Vk-L6

RGA IC50 [1]: 0.49 µg/mL
Kd [2]: 0.014 nM
koff [2]: 0.000108 s⁻¹
kon [2]: 7.54e+06 M⁻¹ s⁻¹
Kd [3]: 0.008 nM
koff [3]: 0.000124 s⁻¹
kon [3]: 1.64e+07 M⁻¹ s⁻¹
IC50 [4]: 0.34 µg/mL
B5: STLM213 (antibody, V domains shown)
VH: B2 VH with G31F, A33D, Y50T, E52R, E57D, Y59N
VL: B3 VL with G93D, I96L
notes: frameworks VH3-23 / Vk-L6

RGA IC50 [1]: 3.16 µg/mL
Kd [2]: 0.027 nM
koff [2]: 0.000201 s⁻¹
kon [2]: 7.54e+06 M⁻¹ s⁻¹
Kd [3]: 0.022 nM
koff [3]: 0.00023 s⁻¹
kon [3]: 1.07e+07 M⁻¹ s⁻¹
IC50 [4]: 0.29 µg/mL
B7: STLM219 (antibody, V domains shown)
VH: B2 VH with A33D, I35F, Y50D, E52G, E57S, Y59N
VL: B3 VL
notes: frameworks VH3-23 / Vk-L6

RGA IC50 [1]: 1.86 µg/mL
Kd [2]: 0.016 nM
koff [2]: 0.000158 s⁻¹
kon [2]: 9.63e+06 M⁻¹ s⁻¹
Kd [3]: 0.003 nM
koff [3]: 0.000264 s⁻¹
kon [3]: 7.89e+07 M⁻¹ s⁻¹
IC50 [4]: 0.3 µg/mL
B12: STLM216 (antibody, V domains shown)
VH: B2 VH with G31S, A33D, I35F, Y50D, E52K, E57A, Y59N
VL: B3 VL
notes: frameworks VH3-23 / Vk-L6

RGA IC50 [1]: 1.88 µg/mL
Kd [2]: 0.037 nM
koff [2]: 0.000301 s⁻¹
kon [2]: 8.22e+06 M⁻¹ s⁻¹
Kd [3]: 0.029 nM
koff [3]: 0.000345 s⁻¹
kon [3]: 1.18e+07 M⁻¹ s⁻¹
IC50 [4]: 0.25 µg/mL
B14: STLM222 (antibody, V domains shown)
VH: B2 VH with G31I, A33S, I35F, Y50D, E52G, E57G, Y59S
VL: B3 VL
notes: frameworks VH3-23 / Vk-L6

RGA IC50 [1]: 1.3 µg/mL
Kd [2]: 0.025 nM
koff [2]: 0.000172 s⁻¹
kon [2]: 6.91e+06 M⁻¹ s⁻¹
Kd [3]: 0.01 nM
koff [3]: 0.000369 s⁻¹
kon [3]: 3.54e+07 M⁻¹ s⁻¹
IC50 [4]: 0.29 µg/mL
B15: STLM215 (antibody, V domains shown)
VH: B2 VH with G31S, A33D, I35F, Y50A, E52A, E57R
VL: B3 VL
notes: frameworks VH3-23 / Vk-L6

RGA IC50 [1]: 2.52 µg/mL
Kd [2]: 0.033 nM
koff [2]: 0.000299 s⁻¹
kon [2]: 9.16e+06 M⁻¹ s⁻¹
Kd [3]: 0.037 nM
koff [3]: 0.000264 s⁻¹
kon [3]: 7.2e+06 M⁻¹ s⁻¹
IC50 [4]: 0.28 µg/mL
B16: STLM214 (antibody, V domains shown)
VH: B2 VH with G31S, A33D, I35F, Y50D, E52K, E57R, Y59A
VL: B3 VL with G93D, I96L
notes: frameworks VH3-23 / Vk-L6

RGA IC50 [1]: 1.69 µg/mL
Kd [2]: 0.017 nM
koff [2]: 0.000126 s⁻¹
kon [2]: 7.27e+06 M⁻¹ s⁻¹
Kd [3]: 0.004 nM
koff [3]: 0.000138 s⁻¹
kon [3]: 3.81e+07 M⁻¹ s⁻¹
IC50 [4]: 0.49 µg/mL
B17: STLM217 (antibody, V domains shown)
VH: B2 VH with G31V, A33D, I35F, Y50D, E52K, Y59S
VL: B3 VL
notes: frameworks VH3-23 / Vk-L6

More lines, now with the values behind:

B1: STLM103 (antibody, V domains shown)
VH: B2 VH with G31F, A33D, I35F, Y50S, E52R, E57R, Y59D
VL: B3 VL
notes: frameworks VH3-23 / Vk-L6
RGA IC50 [1]: 1.92 µg/mL
Kd [2]: 0.041 nM
koff [2]: 0.000163 s⁻¹
kon [2]: 3.97e+06 M⁻¹ s⁻¹
Kd [3]: 0.031 nM
koff [3]: 0.000202 s⁻¹
kon [3]: 6.42e+06 M⁻¹ s⁻¹
IC50 [4]: 0.47 µg/mL

B6: STLM107 (antibody, V domains shown)
VH: B2 VH with G31D, I35F, Y50A, Y59N
VL: B3 VL
notes: frameworks VH3-23 / Vk-L6
RGA IC50 [1]: 1.1 µg/mL
Kd [2]: 0.012 nM
koff [2]: 0.000341 s⁻¹
kon [2]: 2.9e+07 M⁻¹ s⁻¹
Kd [3]: 0.007 nM
koff [3]: 0.00065 s⁻¹
kon [3]: 1e+08 M⁻¹ s⁻¹
IC50 [4]: 0.44 µg/mL

B8: STLM124 (antibody, V domains shown)
VH: B2 VH with G31I, A33D, Y50T, E52K, E57G
VL: B3 VL with G93T, I96L
notes: frameworks VH3-23 / Vk-L6
RGA IC50 [1]: 0.87 µg/mL
Kd [2]: 0.046 nM
koff [2]: 0.000756 s⁻¹
kon [2]: 1.65e+07 M⁻¹ s⁻¹
Kd [3]: 0.03 nM
koff [3]: 0.00257 s⁻¹
kon [3]: 8.71e+07 M⁻¹ s⁻¹
IC50 [4]: 0.35 µg/mL

B9: STLM207 (antibody, V domains shown)
VH: B2 VH with G31S, A33D, Y50T, E52R, E57T, Y59A
VL: B3 VL with G93T, I96L
notes: frameworks VH3-23 / Vk-L6
RGA IC50 [1]: 2.3 µg/mL
Kd [2]: 0.048 nM
koff [2]: 0.000395 s⁻¹
kon [2]: 8.33e+06 M⁻¹ s⁻¹
Kd [3]: 0.021 nM
koff [3]: 0.00207 s⁻¹
kon [3]: 1e+08 M⁻¹ s⁻¹
IC50 [4]: 0.36 µg/mL

B10: STLM108 (antibody, V domains shown)
VH: B2 VH with G31I, A33D, Y50T, E52K, E57G
VL: B3 VL
notes: frameworks VH3-23 / Vk-L6
RGA IC50 [1]: 2.34 µg/mL
Kd [2]: 0.097 nM
koff [2]: 0.000222 s⁻¹
kon [2]: 2.29e+06 M⁻¹ s⁻¹
Kd [3]: 0.029 nM
koff [3]: 0.000598 s⁻¹
kon [3]: 2.05e+07 M⁻¹ s⁻¹
IC50 [4]: 0.23 µg/mL

B11: STLM123 (antibody, V domains shown)
VH: B2 VH with G31D, I35F, Y50A, Y59N
VL: B3 VL with G93T, I96L
notes: frameworks VH3-23 / Vk-L6
RGA IC50 [1]: 1.25 µg/mL
Kd [2]: 0.015 nM
koff [2]: 0.000208 s⁻¹
kon [2]: 1.37e+07 M⁻¹ s⁻¹
Kd [3]: 0.005 nM
koff [3]: 0.000519 s⁻¹
kon [3]: 1e+08 M⁻¹ s⁻¹
IC50 [4]: 0.28 µg/mL

B13: STLM209 (antibody, V domains shown)
VH: B2 VH with G31I, A33D, Y50T, E52R, E57G, Y59S
VL: B3 VL with G93T, I96L
notes: frameworks VH3-23 / Vk-L6
RGA IC50 [1]: 0.97 µg/mL
Kd [2]: 0.026 nM
koff [2]: 0.00017 s⁻¹
kon [2]: 6.59e+06 M⁻¹ s⁻¹
Kd [3]: 0.009 nM
koff [3]: 0.000311 s⁻¹
kon [3]: 3.39e+07 M⁻¹ s⁻¹
IC50 [4]: 0.32 µg/mL
